Holding throughout (assay): BLI
Common to all, as to details: both partners purified

For test [1], the target named is T1, biotinylated αTSR domain of P. falciparum circumsporozoite protein (Plasmodium falciparum 3D7 (by PDB 7RXI)).
T1 construct: also called P. falciparum CSP; C-terminal αTSR domain of P. falciparum circumsporozoite protein
T1 chain: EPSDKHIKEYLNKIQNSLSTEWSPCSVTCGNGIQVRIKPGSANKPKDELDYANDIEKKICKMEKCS

For test [2], the target named is T2, His6-tagged SARS-CoV-2 receptor-binding domain (SARS-CoV-2, UniProt P0DTC2).
T2 construct: source: High Five cells, purified (Ni-NTA, size exclusion)

Test [3] has as its target influenza hemagglutinin (HA) from H1N1 A/California/07/2009 (Influenza A virus H1N1 …, UniProt C3W5X2, biotinylated).

B1: Fab234 (WT) (Fab, V domains shown)
VH: EVQLVESGGGLVKPGGSLRLSCAASGFNFSTHIMNWVRQAPGKGLEWVSSISSSGTYIYYADSMKGRFTISRDNPKNSLYLQMNSLRAEDTAVYYCARARGFIQFHYYMDVWGKGTTVAVSS
VL: SYVLTQPPSVSVAPGKTARITCGGNNIGSKSVHWHQQRPGQAPVLVVYDDKIRPSGIPERFSGSNSGNTATLIISRVEAGDEADYYCQVWHSSSDPVVFGGGTKLTVL
As to B1, in test [1], the binding result is listed as “binds”.

B2: GAR12 Fab VL D50K (Fab, V domains shown)
VH: EVQLVQSGGGLVQPGGSLRLSCAASGFTFSSYAMSWVRQAPGKGLEWVLSISGSGGSTYYADSVKGRFTISIDNSKKTVYLQMNSLRAEDTAVYYCAKSGEQQLVQAEYFHHWGQGTLVTVSS
VL: DIQMTQSPSTLSASVGDRVTITCRASQSIGRWLAWYQQKPGKAPKLLIYKASSLESGVPSRFSGSGFGTEFTLTISSLQPDDFATYYCQQCDSLLTFGGGTKLEIK
notes: also called GAR12 VL D50K; source: ExpiCHO, transiently co-transfected, purified (CaptureSelect CH1-XL)
For B2, in test [2], the “fold change in KD against the wild type” value was 44 fold.

B3: 5J8 Fab (WT) (Fab, V domains shown)
VH: EVQLVESGPGLVKPSDILSLTCAVSGYSISSNYYWGWIRQPPGKGLEWIGSIYHSGSTYYKPSLESRLGISVDTSKNQFSLKLSFVSAADTAVYYCARHVRSGYPDTAYYFDKWGQGTLVTVSS
VL: SYVLTQPPSVSVAPGETARISCGGNNIGTKVLHWYQQTPGQAPVLVVYDDSDRPSGIPERFSGSNSGNTATLTISRVEVGDEADYYCQVWDISTDQAVFGGGTKLTVL
notes: also called IGLV3–21 antibody 5J8; source: ExpiCHO, transiently co-transfected, purified (CaptureSelect CH1-XL)
As for B3, the binding result in test [3] is listed as “binds”.

These data come from publication doi:10.1101/2023.06.06.543969 (bioRxiv, 2023).
